Results reported in patent US20150011462A1 (Novo Nordisk, published 2015).
Numbered stars: 1 amine (or outer) side, 2 acyl side, 3 side chain; on linkers, the order of the positions; unused ones are H or OH. Square brackets hold non-standard residues; d marks the D form. Side chains are listed from the residue outwards. Ends that are not written are not given here. * marks the point of attachment. C22 diacid = O=C(O)CCCCCCCCCCCCCCCCCCCCC(=O)*; C20 diacid = O=C(O)CCCCCCCCCCCCCCCCCCC(=O)*; C19 diacid = O=C(O)CCCCCCCCCCCCCCCCCC(=O)*; γGlu = O=C(O)[C@H](CCC(=O)[*:2])N[*:1]; εLys = N[C@@H](CCCCN[*:1])C(=O)[*:2]; Trx = NC[C@H]1CC[C@H](C(=O)O)CC1; AEEA = NCCOCCOCC(=O)O; Aib = CC(C)(N)C(=O)O

Tests used:
[1] = target: T1, human GLP-1 receptor (human, UniProt P43220 24-463); experiment: cell-based or functional assay
[2] = target: T1, human GLP-1 receptor; experiment: competitive binding (SPA): displacement of 125I-GLP-1(7-36)NH2 from BHK cell membranes with human GLP-1 receptor; low HSA (max. 0.001% final)
Experimental: (§1) For the receptor binding assay in the presence of low HSA (0.005%) 50 μl of the assay buffer was added to each well of an assay plate. […] For the receptor binding assay in the presence of high HSA (2%) 50 μl of the 8% albumin stock was added to each well of an assay plate. […] Cell membrane aliquots were thawed and diluted to their working concentration. Fifty μl were added to each well in the assay plate. […] WGA SPA beads were suspended in assay buffer at 20 mg/ml. The suspension was diluted to 10 mg/ml in assay buffer just prior to addition to the assay plate. Fifty μl were added to each well in the assay plate. […] A 25 μl aliquot was reserved for measuring total counts/well. […] The assay plate was incubated for 2 h at 30° C. […] The assay plate was centrifuged for 10 min. […] The assay plate was read in a Packard TopCount NXT instrument.

[3] = target: T1, human GLP-1 receptor; experiment: competitive binding (SPA): displacement of 125I-GLP-1(7-36)NH2 from BHK cell membranes with human GLP-1 receptor; high HSA (2.0% final)
Experimental: as §1

Row | Binder | EC50 (pM), in vitro potency, CRE luciferase reporter gene assay in BHK cells expressing the human GLP-1 receptor [1] | IC50 [2] | IC50 [3]
1 | H[Aib]EGTFTSDVSSYLEEQAAREFIAWLVRGRGK([AEEA-AEEA-γGlu-Trx-C19 diacid])GGSK([AEEA-AEEA-γGlu-Trx-C19 diacid]) (Double-acylated, C-terminally extended GLP-1 analogue made by SPPS; also called 26) | 13 pM | 0.88 nM | 202 nM
2 | H[Aib]EGTFTSDVSSYLEEQAAREFIAWLVRGRGK([AEEA-AEEA-AEEA-AEEA-εLys-εLys-C20 diacid])GGSK([AEEA-AEEA-AEEA-AEEA-εLys-εLys-C20 diacid]) (Double-acylated, C-terminally extended GLP-1 analogue made by SPPS; also called 25) | 10 pM | 0.22 nM | 38 nM
3 | H[Aib]EGTFTSDVSSYLEEQAAREFIAWLVRGRGK([εLys-εLys-γGlu-Trx-C20 diacid])GGSK([εLys-εLys-γGlu-Trx-C20 diacid]) (Double-acylated, C-terminally extended GLP-1 analogue made by SPPS) | 381 pM | 2.2 nM | 197 nM
4 | H[Aib]EGTFTSDVSSYLEEQAAREFIAWLVRGRGK([AEEA-AEEA-γGlu-Trx-C22 diacid])GGSK([AEEA-AEEA-γGlu-Trx-C22 diacid]) (Double-acylated, C-terminally extended GLP-1 analogue made by SPPS) | 101 pM | 1.6 nM | 21 nM

Stronger by IC50 [2], values ahead:

Row | EC50 (pM), in vitro potency, CRE luciferase reporter gene assay in BHK cells expressing the human GLP-1 receptor [1] | IC50 [2] | IC50 [3] | Binder
5 | 4.4 pM | 0.08 nM | 30 nM | H[Aib]EGTFTSDVSSYLEEQAAREFIAWLVRGRGK([AEEA-AEEA-AEEA-AEEA-AEEA-εLys-εLys-C20 diacid])GGSK([AEEA-AEEA-AEEA-AEEA-AEEA-εLys-εLys-C20 diacid]) (Double-acylated, C-terminally extended GLP-1 analogue made by SPPS; also called 27)
6 | 3.4 pM | 0.05 nM | 30 nM | H[Aib]EGTFTSDVSSYLEEQAAREFIAWLVRGRGK([AEEA-AEEA-AEEA-AEEA-AEEA-AEEA-εLys-εLys-C20 diacid])GGSK([AEEA-AEEA-AEEA-AEEA-AEEA-AEEA-εLys-εLys-C20 diacid]) (Double-acylated, C-terminally extended GLP-1 analogue made by SPPS; also called 28)
